The results in this text go back to patent publication US20090068207A1, “Compositions Containing Beta 2-Glycoprotein I-Derived Peptides for the Prevention and/or Treatment of Vascular Disease” (Vascular Biogenics Ltd., priority 2005, published 2009).

Type in all cases: in vivo
Test [1] deals with LDL-RD mice. Briefly: Aortic sinus lesion area after oral administration, Western diet. The conditions noted are these: for Aortic sinus lesion (μm^2): End, mean ± S.E. As to the method:
Oral Tolerance: For comparison, oral tolerance to plaque-associated molecules was induced by feeding […] of antigen every other day (for a detailed account of induction of oral tolerance, see U.S. patent application Ser. No. 09/806,400 to Shoenfeld et al filed Sep. 30, 1999), in a similar regimen to the nasal tolerance. LDL-RD mice were fed by a nasogastric tube, five doses (every other day) of human or bovine β2GPI in PBS in two different concentrations (500 and 50 μg/dose).
Oral tolerance to β2GPI-derived peptides, alone or in combination was induced by feeding 100 μg of the peptides (prepared in PBS, 0.2 ml), as detailed hereinabove, every other day for a total of 5 doses of 100 μg. One day following the last feeding, all mice were switched from chow-diet to an atherogenic “Western” diet and sacrificed five weeks later.
(§1) Assessment of Atherosclerosis: Quantification of atherosclerotic fatty streak lesions was done by calculating the lesion size in the aortic sinus as previously described (16) and by calculating the lesion size in the aorta. Briefly, after perfusion with saline Tris EDTA, the heart and the aorta were removed from the animals and the peripheral fat cleaned carefully. The upper section of the heart was embedded in OCT medium (10.24% w/w polyvinyl alcohol; 4.26% w/w polyethylene glycol; 85.50% w/w nonreactive ingredients) and frozen. Every other section (10 μm thick) throughout the aortic sinus (400 μm) was taken for analysis. The distal portion of the aortic sinus was recognized by the three valve cusps that are the junctions of the aorta to the heart. […] Lesion areas per section were scored on a grid (17) by an observer counting unidentified, numbered specimens. The aorta was dissected from the heart and surrounding adventitious tissue was removed. Fixation of the aorta and Sudan staining of the vessels were performed as previously described (21).
LDL-receptor deficient (LDL-RD; LDLR −/−) mice created on a C57BL/6 background develop accelerated atherosclerosis when fed a high cholesterol diet, but not when fed a regular chow diet. In order to determine whether mucosal administration of the plaque antigen β2GPI could suppress atherogenic processes, LDL-RD mice were fed low, oral tolerance inducing doses of human and bovine β2GPI, and the assessed for alterations in response to diet.

Test [2] concerns LDL-RD mice. Briefly: Aortic sinus lesion area after nasal tolerance induction, Western diet. The conditions noted are these: End, mean ± S.E.
Description: Nasal Tolerance: Nasal tolerance was induced by intranasal administration of oxidized LDL, β2GPI, β2GPI-derived peptides or HSP65, in a total volume of 10 μl PBS. Intranasal administration was performed on mildly sedated mice (12-16 weeks old), each mouse receiving 3 doses of antigen per dose, in the indicated concentrations, every other day. Atherogenesis was induced by 5 weeks of a Western diet initiated on the day following the last intranasal administration, or assessed (in Apo E KO mice) after 8 weeks on a chow diet. Controls received equal amounts of BSA and/or PBS, as indicated, in an identical regimen. Plasma was obtained for assessment of cholesterol and triglyceride levels from all mice, and the mice were sacrificed for evaluation of atherosclerosis, as described hereinbelow, after 5 weeks Western diet, or (in Apo E KO mice) after 8 weeks on a chow diet.
Assessment of Atherosclerosis: Quantification of atherosclerotic fatty streak lesions was done by calculating the lesion size in the aortic sinus as previously described (16) and by calculating the lesion size in the aorta. Briefly, after perfusion with saline Tris EDTA, the heart and the aorta were removed from the animals and the peripheral fat cleaned carefully. The upper section of the heart was embedded in OCT medium (10.24% w/w polyvinyl alcohol; 4.26% w/w polyethylene glycol; 85.50% w/w nonreactive ingredients) and frozen. Every other section (10 μm thick) throughout the aortic sinus (400 μm) was taken for analysis. The distal portion of the aortic sinus was recognized by the three valve cusps that are the junctions of the aorta to the heart. Sections were evaluated for fatty streak lesions after processing and staining with oil-red O, according to Paigen et al (Atherosclerosis, 1987; 68:231-40). Lesion areas per section were scored on a grid (17) by an observer counting unidentified, numbered specimens. The aorta was dissected from the heart and surrounding adventitious tissue was removed. Fixation of the aorta and Sudan staining of the vessels were performed as previously described (21).
Mice were bled prior to feeding (Time 0) and at the conclusion of the experiment (End) for determination of lipid profile. Atherosclerosis was assessed in heart and aorta as described above, 8 weeks after the last feeding. Mice were weighed every 2 weeks during the experiment. All mice were fed water ad libitum and a normal chow-diet containing 4.5% fat by weight (0.02% cholesterol), up to the final antigen exposure, and then a “Western” diet until sacrifice.
Thus, nasal exposure to a low dose and an exceedingly low dose of recombinant human HSP 65 were compared for their effectiveness in suppressing atherogenesis in LDL-RD mice. 58 male 12-16 week old LDL-RD mice were divided into 4 groups.
The next test has as its system ApoE-KO mice. Briefly: Aortic sinus lesion area after oral administration in ApoE-KO mice. The conditions noted are these: End t = 16 wks; oral 50 μg/mouse; ApoE-KO mice; mean ± S.E.
Text: as §1
In order to determine the protective effect of mucosal administration of β2GPI on development of atherosclerosis, adult ApoE-KO mice were treated with oral administration of human β2GPI. 20 week-old male ApoE-KO mice, having advanced atherosclerotic lesions were treated monthly with human β2GPI (50 μg/dose) or PBS (0.2 ml) in 5 oral administrations (by gavage, as described hereinabove) given every other day, for four months. Lesion area calculated from cryosections of the aortic sinus were compared between control untreated 20 week old mice, and mice following 16 weeks oral administration of β2GPI or PBS.
10-11 week-old male ApoE-KO mice, having early atherosclerotic lesions, were treated with 5 oral administrations (by gavage, as described hereinabove) given every other day of human β2GPI peptide S-4 (SEQ ID NO: 14) or human β2GPI (50 μg/dose) or PBS (0.2 ml). Lesion areas calculated from cryosections of the aortic sinus were compared between control untreated, human β2GPI treated and S-4 human β2GPI-derived peptide treated mice at 8 weeks following the last oral administration of the antigens, or of PBS.

B1: B-β2 GPI: bovine beta2-glycoprotein I purified from serum (protein, UniProt P17690 20-345, looked up)
Beta-2-glycoprotein 1: GRTCPKPDELPFSTVVPLKRTYEPGEQIVFSCQPGYVSRGGIRRFTCPLTGLWPINTLKCMPRVCPFAGILENGTVRYTTFEYPNTISFSCHTGFYLKGASSAKCTEEGKWSPDLPVCAPITCPPPPIPKFASLSVYKPLAGNNSFYGSKAVFKCLPHHAMFGNDTVTCTEHGNWTQLPECREVRCPFPSRPDNGFVNHPANPVLYYKDTATFGCHETYSLDGPEEVECSKFGNWSAQPSCKASCKLSIKRATVIYEGERVAIQNKFKNGMLHGQKVSFFCKHKEKKCSYTEDAQCIDGTIEIPKCFKEHSSLAFWKTDASDVKPC
For the molecule B1, the “Aortic sinus lesion (μm^2)” value is recorded as 27422 ± 3007 μm^2 in the test on LDL-RD mice [1] (oral 50 μg) and 20781 ± 2290 μm^2 with LDL-RD mice [1] (oral 500 μg). In addition, the “reduction of atherosclerosis as compared with BSA-fed controls” value with LDL-RD mice [1] (oral 50 μg/dose) is reported as 57%; in the test with LDL-RD mice [1] (oral 500 μg/dose), 43%.

B2: HSP65: recombinant human HSP 65 according to Example 2 and Table 2 (protein, UniProt P10809 27-573, looked up)
60 kDa heat shock protein, …: AKDVKFGADARALMLQGVDLLADAVAVTMGPKGRTVIIEQSWGSPKVTKDGVTVAKSIDLKDKYKNIGAKLVQDVANNTNEEAGDGTTTATVLARSIAKEGFEKISKGANPVEIRRGVMLAVDAVIAELKKQSKPVTTPEEIAQVATISANGDKEIGNIISDAMKKVGRKGVITVKDGKTLNDELEIIEGMKFDRGYISPYFINTSKGQKCEFQDAYVLLSEKKISSIQSIVPALEIANAHRKPLVIIAEDVDGEALSTLVLNRLKVGLQVVAVKAPGFGDNRKNQLKDMAIATGGAVFGEEGLTLNLEDVQPHDLGKVGEVIVTKDDAMLLKGKGDKAQIEKRIQEIIEQLDVTTSEYEKEKLNERLAKLSDGVAVLKVGGTSDVEVNEKKDRVTDALNATRAAVEEGIVLGGGCALLRCIPALDSLTPANEDQKIGIEIIKRTLKIPAMTIAKNAGVEGSLIVEKIMQSSSEVGYDAMAGDFVNMVEKGIIDPTKVVRTALLDAAGVASLLTTAEVVVTEIPKEEKDPGMGAMGGMGGGMGGGMF
Turning to B2, the “Aortic sinus lesion (μm^2)” value is 17109 ± 2053 μm^2 in the test on LDL-RD mice [2] (intranasal 1 μg/mouse) and 22292 ± 2691 μm^2 in the test with LDL-RD mice [2] (intranasal 10 μg/mouse).

B3: B-β2GPI: head of Table 5; text and footnote say human β2GPI, 50 μg/mouse orally (protein, UniProt P02749 20-345, looked up)
Beta-2-glycoprotein 1: GRTCPKPDDLPFSTVVPLKTFYEPGEEITYSCKPGYVSRGGMRKFICPLTGLWPINTLKCTPRVCPFAGILENGAVRYTTFEYPNTISFSCNTGFYLNGADSAKCTEEGKWSPELPVCAPIICPPPSIPTFATLRVYKPSAGNNSLYRDTAVFECLPQHAMFGNDTITCTTHGNWTKLPECREVKCPFPSRPDNGFVNYPAKPTLYYKDKATFGCHDGYSLDGPEEIECTKLGNWSAMPSCKASCKVPVKKATVVYQGERVKIQEKFKNGMLHGDKVSFFCKNKEKKCSYTEDAQCIDGTIEVPKCFKEHSSLAFWKTDASDVKPC
On to B3, for which the “Aortic sinus lesion (μm^2)” value in the test with ApoE-KO mice was found to be 221042 ± 14472 μm^2.
